What was measured:
[1] = biological target: Xenopus FANCI (Xenopus laevis (endogenous in egg extracts)); assay: co-depletion by immunodepletion; DNA-free Xenopus S-phase egg extracts; FANCD2 or FANCI antibody coupled to Sepharose 4B beads, 60 min on ice, one to two rounds; depleted extracts analysed by immunoblot
[2] = biological target: Xenopus FANCD2 (Xenopus laevis (endogenous in egg extracts)); assay: as above

Row | Substance | percent co-depleted [1] [%] | percent co-depleted [2] [%]
1 | Xenopus FANCD2 (natural protein) | 80 | –
2 | Xenopus FANCI (natural protein) | – | 80

From publication PMC3711430
